These results are taken from paper PMC6707742.

The target in this data set is coagulation factor IXa (FIXa) (human, UniProt P00740;P00740 47-191;227-461). The data set can be described thus: SPR. On the technique in general: Surface plasmon resonance follows binding to a sensor surface in real time, without labels.
Chain of coagulation factor IXa (FIXa) (P00740 47-191, chain 1 of 2): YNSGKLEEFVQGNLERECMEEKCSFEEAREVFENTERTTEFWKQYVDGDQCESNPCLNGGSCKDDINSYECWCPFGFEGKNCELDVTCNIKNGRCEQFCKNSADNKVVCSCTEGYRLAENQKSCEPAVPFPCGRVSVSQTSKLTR
Chain of coagulation factor IXa (FIXa) (P00740 227-461, chain 2 of 2): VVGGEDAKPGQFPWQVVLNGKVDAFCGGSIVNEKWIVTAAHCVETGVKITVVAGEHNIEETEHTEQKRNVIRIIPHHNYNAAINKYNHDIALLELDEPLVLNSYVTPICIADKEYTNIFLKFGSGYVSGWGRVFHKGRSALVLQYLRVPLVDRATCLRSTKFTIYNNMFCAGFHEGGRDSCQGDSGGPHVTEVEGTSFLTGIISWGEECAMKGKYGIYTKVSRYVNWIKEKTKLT

B1: RB006 (XNA)
RNA: GUGGACUAUACCGCGUAAUGCUGCCUCCAC
modifications: 5' 40 kDa branched mPEG; uppercase 2'-F, lowercase 2'-OMe in GUGGAcuAuAccGcGuAAuGcU(G)CcuCCAC; (G) unmodified; 3' inverted dT
With B1, the binding result is on record as “binds”.
